According to the supplement of paper PMC6757056:
± gives the standard deviation of the averaged measurements.

B1: library; a variant is named by its letters at N, in order (parent)
chain: GCUGUCACCGGAAUACCAGCAUCGUCUUGAUGCCCUUGGAAGUCCGGUCUGAUGAGUCCNNNNNGGACGAAACAGC

What was measured:
theophylline [1] = variants of: B1; assay: FACS-Seq fitted mean relative fluorescence mCherry/BFP without ligand (log10 relative fluorescence); higher = higher reporter protein expression; conditions: HEK293T, ligand present: no
Procedure: (§1)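 Hammerhead (sTRSV) ribozyme switch libraries with a ligand aptamer grafted on stem I and a randomized N4-6 loop II, cloned into the 3' UTR of mCherry and transiently transfected into HEK293T cells; RNA-Seq 72 h post transfection with ligand added 1 h before transfection; RNA read count / plasmid DNA read count normalized to the non-cleaving sTRSVctl (x100), log10; sequences with >100 DNA reads. FACS-Seq: lentiviral library sorted into 6 bins after 48 h ligand, log-normal fit mean of mCherry/BFP scaled to controls. Printed sequences are partial switch sequences.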

theophylline [2] = variants of: B1; assay: normalized RNA/DNA level with ligand (relative to sTRSVctl = 100) (log10 (% of sTRSVctl)); higher = less ribozyme self-cleavage, higher mRNA level; conditions: ligand concentration (+) RNA-Seq: 5 mM, HEK293T, reporter: mCherry (pCS4076), ligand present: yes
Procedure: as §1

theophylline [3] = variants of: B1; assay: normalized RNA/DNA level without ligand (relative to sTRSVctl = 100) (log10 (% of sTRSVctl)); higher = less ribozyme self-cleavage, higher mRNA level; conditions: HEK293T, reporter: mCherry (pCS4076), ligand present: no
Procedure: as §1

theophylline [4] = variants of: B1; assay: FACS-Seq fitted mean relative fluorescence mCherry/BFP with ligand (log10 relative fluorescence); ligand concentration (+) FACS-Seq: 1 mM; higher = higher reporter protein expression; conditions: HEK293T, ligand present: yes
Procedure: as §1

Variant	FACS-Seq fitted mean (log10) (theophylline [1])	normalized RNA/DNA level with ligand (log10) (theophylline [2])	normalized RNA/DNA level without ligand (log10) (theophylline [3])	FACS-Seq fitted mean (log10) (theophylline [4])
GACGU	0.7517 ± 0.0053	1.93 ± 0.027	1.64 ± 0.15	1.03 ± 0.022
GACGG	0.642 ± 0.057	1.93 ± 0.045	1.71 ± 0.11	0.887 ± 0.096
GAGAA	0.48 ± 0.017	1.91 ± 0.15	1.41 ± 0.11	0.7667 ± 0.00081
GAGAU	0.787 ± 0.038	1.97 ± 0.038	1.73 ± 0.074	0.958 ± 0.062
CAAAC	0.851 ± 0.024	1.92 ± 0.024	1.82 ± 0.054	0.833 ± 0.033
CAAAA	0.173 ± 0.019	1.95 ± 0.029	1.31 ± 0.062	0.67 ± 0.071
CAAAU	0.264 ± 0.0079	1.946 ± 0.0043	1.6 ± 0.19	0.399 ± 0.048
UAGGA	0.042 ± 0.047	1.958 ± 0.0077	1.55 ± 0.063	0.302 ± 0.044
CAGAC	0.2 ± 0.032	2.04 ± 0.028	1.9 ± 0.086	0.0728 ± 0.14
CAGAA	0.0186 ± 0.078	1.95 ± 0.054	1.2 ± 0.22	0.681 ± 0.037
CAGAU	0.809 ± 0.1	2 ± 0.035	1.6 ± 0.25	1.05 ± 0.037
AACCU	0.83 ± 0.037	2.06 ± 0.1	1.949 ± 0.017	0.698 ± 0.016
AACCA	0.923 ± 0.12	2.001 ± 0.0053	1.82 ± 0.047	0.908 ± 0.065
AACCG	0.924 ± 0.031	2 ± 0.031	1.89 ± 0.071	1.13 ± 0.098
AACCC	0.867 ± 0.012	2.042 ± 0.014	1.97 ± 0.031	0.862 ± 0.045
AACGU	0.773 ± 0.075	1.965 ± 0.017	1.793 ± 0.011	0.854 ± 0.2
AACGC	0.98544 ± 0.00052	2.135 ± 0.0047	1.94 ± 0.072	0.922 ± 0.023
AACGA	0.235 ± 0.038	1.96 ± 0.1	1.53 ± 0.17	0.536 ± 0.026
AACGG	0.852 ± 0.14	2 ± 0.049	1.8 ± 0.057	0.998 ± 0.083
AAGCG	0.683 ± 0.068	2 ± 0.075	1.96 ± 0.067	0.7793 ± 0.0014
AAGCA	0.538 ± 0.016	2.03 ± 0.051	1.8 ± 0.033	0.682 ± 0.023
AAGCU	0.983 ± 0.1	2.05 ± 0.094	1.78 ± 0.077	1.11 ± 0.11
AAGCC	0.748 ± 0.02	2.03 ± 0.089	2.01 ± 0.071	0.7196 ± 0.0051
CACUC	1 ± 0.12	2 ± 0.11	1.98 ± 0.096	0.969 ± 0.1

Variant	FACS-Seq fitted mean (log10) (theophylline [1])	normalized RNA/DNA level with ligand (log10) (theophylline [2])	normalized RNA/DNA level without ligand (log10) (theophylline [3])	FACS-Seq fitted mean (log10) (theophylline [4])
CACUA	0.228 ± 0.023	1.99 ± 0.058	1.44 ± 0.063	0.437 ± 0.048
CACUU	0.741 ± 0.014	2 ± 0.028	1.756 ± 0.0024	1.028 ± 0.0013
CAGGC	0.86 ± 0.039	2.06 ± 0.046	1.95 ± 0.03	0.813 ± 0.041
CAGGU	0.996 ± 0.18	2 ± 0.03	1.96 ± 0.041	0.848 ± 0.048
CAGGA	0.706 ± 0.028	2.01 ± 0.082	1.62 ± 0.25	0.799 ± 0.045
GACAA	0.619 ± 0.048	1.938 ± 0.019	1.56 ± 0.022	0.731 ± 0.017
GACAG	0.769 ± 0.29	1.952 ± 0.0094	1.77 ± 0.055	0.612 ± 0.13
GACAU	0.478 ± 0.063	2.04 ± 0.032	1.859 ± 0.0069	0.576 ± 0.07
UAAUU	0.64 ± 0.039	2 ± 0.023	1.84 ± 0.062	0.613 ± 0.056
UAAUG	0.816 ± 0.076	1.929 ± 0.0084	1.814 ± 0.0095	0.887 ± 0.071
UAAUC	0.913 ± 0.018	1.9 ± 0.047	1.94 ± 0.098	0.9083 ± 0.0059
UAAUA	0.553 ± 0.011	2.03 ± 0.11	1.56 ± 0.15	0.868 ± 0.015
UACUU	0.59 ± 0.079	2.01 ± 0.023	1.9 ± 0.041	0.754 ± 0.026
UACUA	0.959 ± 0.069	1.97 ± 0.11	1.67 ± 0.042	1.05 ± 0.071
UACUG	0.382 ± 0.044	1.9807 ± 0.00035	1.94 ± 0.04	0.421 ± 0.12
UACUC	0.1 ± 0.14	2.1 ± 0.021	2.02 ± 0.039	0.351 ± 0.022
CAAUU	0.59 ± 0.019	2.02 ± 0.033	1.65 ± 0.096	0.775 ± 0.021
CAAUA	0.192 ± 0.018	1.96 ± 0.054	1.16 ± 0.17	0.785 ± 0.033
CAAUC	0.844 ± 0.034	1.94 ± 0.053	1.83 ± 0.13	0.825 ± 0.014
GACCU	1.03 ± 0.1	1.99 ± 0.064	1.95 ± 0.06	1.03 ± 0.15
CACGC	0.917 ± 0.026	2.04 ± 0.065	1.996 ± 0.013	1.04 ± 0.043
CACGA	0.805 ± 0.037	1.998 ± 0.0074	1.76 ± 0.036	0.917 ± 0.012
UAACC	0.589 ± 0.058	1.92 ± 0.025	1.92 ± 0.04	0.702 ± 0.061
UAACG	0.784 ± 0.07	1.99 ± 0.04	1.87 ± 0.18	0.711 ± 0.018

Variant	FACS-Seq fitted mean (log10) (theophylline [1])	normalized RNA/DNA level with ligand (log10) (theophylline [2])	normalized RNA/DNA level without ligand (log10) (theophylline [3])	FACS-Seq fitted mean (log10) (theophylline [4])
UAACU	0.803 ± 0.036	2 ± 0.14	1.89 ± 0.02	0.716 ± 0.1
UAACA	0.606 ± 0.025	1.99 ± 0.066	1.55 ± 0.053	0.813 ± 0.024
UAAAG	0.272 ± 0.033	2.041 ± 0.007	1.84 ± 0.11	0.497 ± 0.037
UAAAU	0.912 ± 0.013	1.978 ± 0.0035	1.84 ± 0.13	0.9829 ± 0.0075
UAAAC	0.86 ± 0.034	1.978 ± 0.013	1.91 ± 0.096	0.924 ± 0.042
UAAAA	0.164 ± 0.019	1.99 ± 0.029	1.206 ± 0.0047	0.589 ± 0.038
CAAGC	0.66 ± 0.031	1.96 ± 0.064	1.99 ± 0.079	0.543 ± 0.046
CAAGA	0.32 ± 0.031	1.97 ± 0.023	1.56 ± 0.15	0.3733 ± 0.0017
CAAGU	0.759 ± 0.043	1.976 ± 0.016	1.94 ± 0.067	0.761 ± 0.14
UACAU	0.684 ± 0.015	2.03 ± 0.17	1.91 ± 0.14	0.722 ± 0.0088
UACAG	1.02 ± 0.041	1.96 ± 0.051	1.908 ± 0.018	0.918 ± 0.052
UACAC	0.83 ± 0.034	1.98 ± 0.02	1.99 ± 0.025	0.695 ± 0.097
UACAA	0.427 ± 0.022	1.972 ± 0.012	1.6 ± 0.032	0.553 ± 0.018
AAAUC	0.4981 ± 0.0025	1.89 ± 0.034	1.9 ± 0.099	0.511 ± 0.021
AAAUG	0.571 ± 0.038	2.03 ± 0.022	1.75 ± 0.054	0.607 ± 0.029
AAAUU	0.984 ± 0.045	2.02 ± 0.1	1.82 ± 0.082	1.05 ± 0.06
AAAUA	0.6481 ± 0.0057	1.99 ± 0.038	1.62 ± 0.16	0.806 ± 0.062
CAGCU	0.425 ± 0.0073	2.017 ± 0.019	1.75 ± 0.059	0.527 ± 0.0083
CAGCC	0.864 ± 0.054	2 ± 0.035	1.97 ± 0.025	0.846 ± 0.13
CAGCA	0.319 ± 0.011	1.88 ± 0.099	1.52 ± 0.1	0.461 ± 0.062
GAACU	0.973 ± 0.11	2.033 ± 0.0061	1.83 ± 0.12	0.975 ± 0.024
GAACG	1.01 ± 0.081	1.89 ± 0.14	1.793 ± 0.015	1.03 ± 0.028
GAACA	0.228 ± 0.096	1.92 ± 0.025	1.6 ± 0.015	0.116 ± 0.032
